Laboratory results: the nanobody polyreactivity screen of Harvey et al. (2022)

Assay: yeast display, Sf9 membrane polyspecificity reagent, FACS + sequencing; frameworks hold sequencing errors
Procedure, shortened: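 Sorting gates, low and high (top ~1%), were placed on anti-HA fluorescence to track expression and on streptavidin fluorescence to track reagent binding. A clone's polyreactivity label is taken from the gate it came out of. The reagent was 10% biotinylated, detergent-solubilized Sf9 membrane, applied for 1 hour at 4 °C to galactose-induced yeast display cells.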

Sequence | polyreactivity (PSR sort gate)
QVQLVESGGGLVQAGGSLRLSCAASGTIFWIYAMGWYRQAPGKERELVATITRRGGSTYYADSVKGRFTISRDNATNTVYLQMNSLKPEDTAVYFCATEPGYTYLTSYKYDYWGQGTQVTVSS | low polyreactivity
QVQLVESGGGLVQAGGSLRLSCAASGSTFGKYAMGWYRQAPGKERELVAAISKSGGSTYYADSVKGRFTISRDNAKNTVYLQMNSLKPEDTAVYYCAADVTYGTKWAYDYWGQGTQVTVSS | high polyreactivity
QVQLVESGGGLVQAGGSLRLSCAASGSILRYTMGWYRQAPGKEREWVAAITRSGTSTYYADSVKGRFTISRDNAKNTVYLQMNSLKPEDTAVYYCAASAGPRASYYYWGQGTQVTVSS | high polyreactivity
QVQLVESGGGLVQAGGSLRLSCAASGFTFLYGMGWYRQAPGEERELVAAISNTGGSTYYADSVKGRFTISRDNAKNTVYLQMNSLKPEDTAVYYCAADGGQWWVFYALDFWGQGTQVTVSS | low polyreactivity
QVQLLESGGGLVQAGGSRRLSCASSGITFAFYAMGWYRQAPGKESELVAAISWSGTRTYYADSVKGRFTISRDNAKNTVYLQMNRLKPEDTAVYYCAAVYQAGDKLYDYWGQGTQVTVSS | low polyreactivity
QVQLVESGGGLVQAGGSLRLSCAASGLTIWRYAMGWYRQAPGKETEFVASISQNGGRTDYADSVKGRFTISRDNAKNTVYLQMNSLKPEDTAVYYCAARRYYGVYYAFYFWRQGTQVTVSS | high polyreactivity
QVQLVESGGGLVQAGGSLRLSCAASGFTFSSYAMGWSRQAPGKERELVAAITISGGRTYYADSVKGRFTISRDNAKNTVYLQMNSLIPEDTAVYYCAAVGRLARRDYWGQGTQVTVSS | high polyreactivity
QVQLVESGGGLVQAGGSLRLSCAASGRIFVGYAMGWYRQAPGKERELVAVISGRGGSTYYADSVKGRFTISRDNAKNTVYLQMNSLKPEDTAVYYCATDYYGPDYPLDYWGQGTQVTVSS | low polyreactivity
QVQLVESGGGLVQAGGSLRLSCAASGFTFPRYAMGWYRQAPGKERELVAAITSGDRTYYADSVKGRFTISRDNAKNTVYLQMNSLKPEDTAVYYCAKSSPRKSSQKHSFYEYNYWGQGTQVTVSS | high polyreactivity
QVQLVESWGGLVQAGGNLRLSCAASGFIFTRYAMGWYRPAPGTERELVAAISTSGDRTYYADSVKGRFTISRDNAKNTVYLQMNSLKPEDTAVYYCAVVRPRSVVRYDYWGQGTQVTVSS | high polyreactivity
QVQLVESGGGLVQAGGSLRLSCAASGIIFYRYAMGWYRQAPGKERELVATIRRSDGSTYYADSVKGRFTISRDNAKNTVYLQMKSLKPVDTAVYYCAARRPYSSGYDYWGQGSQVTVSS | high polyreactivity
QVQRVESGGGLVQAGGRLRLSCAASGSTFRQYAMGWYRQAPGKERELVAAITGGGGSTYYADSVKGRFTISRDNAKNTVYLQMNSLKPEDTAVYYCNAVHRYERDYWGQGTQVTVSS | high polyreactivity
QVQLVESGGVLVQAGGSLRLSCAASGSAFRENDMGWYRQAPGKERELVAAITFSGGSTYADSVKGRFTISRDIAKNTVYLQMNSLKPEDSAVYYCSADTLPAEYEYDYWGQGTQVTVSS | low polyreactivity
QVQLVESGGGLVQAGGSLRLSCAASGLTFYNARGWYRQAPGKERELVAAISGTVSRTYYADSVKGRFTISRDNAKNTVYLEMNSLKPEDTAVYYCAVRWYGKYSGVRYYYWGQGTQVNVSS | high polyreactivity
QVQLVESGGGLVQAGGSLRLSCAASGRTFGPYAMGWYRQAPGKEREFVAAISYSGGSTYYADSVKGRFTISRDNAKNTVYLQMNSLKPEDTAVYYCAAETYYGRIYWYIRDYWGQGTQVTVSS | low polyreactivity
QVQLVESGGALVQEGRSLRLSCAASGGTFADYPMGWYRQAPVKERELVAAITNGGSTFYADSVKGRFTSSRDNATNTVYLQMNSLKPDDTAVYYWSAVYLYAYSPYFSAVEMYYWGQGSQVTVSS | low polyreactivity
QVQLVESGGGLVQAGGSLRLSCAASGSIFVIYAMGWYRQAPGKERELVAAITWNGGSTVYADSVKGRFTISRDNAKNTVYLQMNSLKPEDTAVYSCNAVAVSNSGWEYDYWGQGTQVTVSS | low polyreactivity
QVQLVESGGGLVQARGSLRLSCAAYGLTLRGYAMGWYRQAPGKERELVAAISGSGTSTYYADSVKWRFTISRDNAKNTVYLQMNSLKPEDTAVYYCAAVKVRKGLEMGYWGQGTQVTVSS | high polyreactivity
QVQLVESGGGLVQAGGSLRLSCAASGSTVDWNAMGWYRQAPGKERELVAGITFRSGSTYYADSVKGRFTISRDNAKNTVYLQMNSLKPEDTAVYYCNVKLYYYYFRMYYWGQGTQVTVSS | low polyreactivity
QVQLVESGGGLVQAGGRLRLSCAASGRTMGWYRQAPGKERELVAAISSGGGSTYYADSVKGRFTISRDNAKNTVYLQMNSLKPEDTAVYYCARTTIAQLHSIVAPHDYWGQGTQVTVSS | low polyreactivity
QVHLVESGGGLVQAGGSLRLSCAASGSISLNAMGWYTQAPGKERELDAGISNDDGTNYADSVKGRFTISRDNAKNPVYLQMNSLKPEDTAVYYCNAERDFVEDYWTYLRYDYWGQGTQVTVSS | low polyreactivity
